± gives the standard deviation.

This data set in a line: protein stability index of a GFP-peptide fusion (GPS, HEK-293T) (PSI 1-6); higher = more stable. Conditions: c terminus: a fixed tail appended.
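Further: 24-mer peptide tiles fused after GFP, lentivirally expressed, FACS-sorted into six equal bins by GFP/DsRed ratio, decoded by Illumina sequencing, PSI is the read-weighted mean bin number.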

On to PVDSVLFYAITTLHNLLLHQEGAK [CTNNB1], for which the protein stability index reads like this: (treatment: DMSO) 2.81 ± 0.48; (treatment: MLN4924 1 uM, 8 h) 2.71 ± 0.17.
PVHIHPAFARQAAQEPSAVPRAGP [FOXJ1]: the protein stability index runs as follows: (treatment: DMSO) 4.45 ± 0.088; (treatment: MLN4924 1 uM, 8 h) 4.22 ± 0.15.
As for PVSASRSSLDLSYYPTSSSTSFMS [EMD], the protein stability index amounted to 3.38 ± 0.21 (treatment: DMSO) and 3.38 ± 0.13 (treatment: MLN4924 1 uM, 8 h).
Regarding QARLEEQQRLAHLEDKLRLLAQAR [LRRC45], the protein stability index (treatment: DMSO) was 3.37 ± 0.61 and the protein stability index (treatment: MLN4924 1 uM, 8 h) came out at 3.32 ± 0.35.
As to QARRQQVKQYLSTTLGPKLASQAL [TFE3], the protein stability index is, setting by setting: (treatment: DMSO) 2.95 ± 0.51; (treatment: MLN4924 1 uM, 8 h) 2.9 ± 0.23.
With QASVSCALEALEPFWEVLVRSTET [HDAC6], the protein stability index runs as follows: (treatment: DMSO) 2.64 ± 0.57; (treatment: MLN4924 1 uM, 8 h) 2.46 ± 1.1.
Regarding QDRFRIELSEEGAEGRVVGRKDIT [MOSPD3], the protein stability index (treatment: DMSO) was determined as 4.91 ± 0.23 and the protein stability index (treatment: MLN4924 1 uM, 8 h) is 5.1 ± 0.31.
For the sequence QEIATYRRLLEGEDAHLTQYKKEP [KRT17], the protein stability index by setting is: (treatment: DMSO) 4.68 ± 0.19; (treatment: MLN4924 1 uM, 8 h) 4.82 ± 0.18.
On to QETPYLVKLPLPAERVTLADFKGV [DVL3], for which the protein stability index is, setting by setting: (treatment: DMSO) 3.25 ± 0.3; (treatment: MLN4924 1 uM, 8 h) 3.49 ± 0.18.
The like results for QGEAFQRALESELQQLRARLQGLE [PBXIP1] were, in that order, 3.1 ± 0.17 and 3.23 ± 0.28.
Regarding QGEQLEVPERLLVVLDMEEGTLGY [SPSB2], the protein stability index reads like this: (treatment: DMSO) 2.86 ± 0.34; (treatment: MLN4924 1 uM, 8 h) 3.06 ± 0.24.
In the case of QGFSYSKSNGRGGSQAGGSGSAGQ [MYOZ1], the protein stability index (treatment: DMSO) stood at 4.76 ± 0.18 and the protein stability index (treatment: MLN4924 1 uM, 8 h) was 5.02 ± 0.16.
In turn, QHKTCMLNATSKFMEFYQDVKDWW [EDNRA] showed a protein stability index (treatment: DMSO) of 2.6 ± 0.74 and a protein stability index (treatment: MLN4924 1 uM, 8 h) of 2.89 ± 0.36.
As to QIRDWRGGRLENQKPRGLEGGVLR [ZSWIM9], the protein stability index amounted to 3.3 ± 0.54 (treatment: DMSO) and 3.57 ± 0.15 (treatment: MLN4924 1 uM, 8 h).
With QIVQLTQQVDTNISVILPTVHEVD [DENND6A], the protein stability index is 3.07 ± 0.35 (treatment: DMSO) and 3.3 ± 0.37 (treatment: MLN4924 1 uM, 8 h).
Turning to QKLQDVLHEALQDYEAGQHMEDPR [ESRRG], the protein stability index runs as follows: (treatment: DMSO) 4.72 ± 0.34; (treatment: MLN4924 1 uM, 8 h) 5.13 ± 0.26.
For the sequence QKLYVRLFQRKLSWIKMTKLEYEE [FAN1], the protein stability index turned out to be 2.63 ± 1.1 (treatment: DMSO) and 2.44 ± 0.6 (treatment: MLN4924 1 uM, 8 h).
Turning to QLLFVIFLLLYLFTLGTNAIIIST [OR10K2], the protein stability index is, setting by setting: (treatment: DMSO) 3.18 ± 0.37; (treatment: MLN4924 1 uM, 8 h) 3.19 ± 0.23.
QLQDFNIPQAGGWGPWGPWGDCSR [ADAMTS4] came in with a protein stability index (treatment: DMSO) of 2.56 ± 0.59 and a protein stability index (treatment: MLN4924 1 uM, 8 h) of 3 ± 0.8.
Sequence QLQELLHHCDDHLSLYQLSLERGT [RSAD1] came in with a protein stability index (treatment: DMSO) of 2.34 ± 0.24 and a protein stability index (treatment: MLN4924 1 uM, 8 h) of 2.58 ± 0.34.
Turning to QLSAPHCKKLSLELGGKNPAIIFE [ALDH8A1], the protein stability index worked out at 2.8 ± 0.26 (treatment: DMSO) and 2.9 ± 0.43 (treatment: MLN4924 1 uM, 8 h).
For QLVLAYDYSREVNTTEELEALITD [FEM1A] the same measures were 3.53 ± 0.28 and 3.8 ± 0.34.
For the sequence QMAEKNRRDAETWFLSKTEELNKE [KRT16], the protein stability index was 5.02 ± 0.57 (treatment: DMSO) and 4.81 ± 0.35 (treatment: MLN4924 1 uM, 8 h).
As to QNECQVLKLLNHPNVIEYYENFLE [NEK8], the protein stability index worked out at 2.56 ± 0.12 (treatment: DMSO) and 2.67 ± 0.27 (treatment: MLN4924 1 uM, 8 h).
For QQPSKHRTDEELQPPTTTVARSGT [PLK2], the protein stability index stood at 5.47 ± 0.15 (treatment: DMSO) and 5.27 ± 0.1 (treatment: MLN4924 1 uM, 8 h).
The like results for QQREKLSLIRKHAQTFIALCATDF [CCND2] were, in that order, 2.25 ± 0.22 and 2.44 ± 0.13.
For the sequence QRDVGWAALLILFAASLLTVFAWL [C2CD2L], the protein stability index reads like this: (treatment: DMSO) 2.94 ± 0.34; (treatment: MLN4924 1 uM, 8 h) 3.05 ± 0.56.
The like results for QSIEYAGQQDQVKLHDFFSYLMDH [PPEF2] were, in that order, 2.94 ± 0.26 and 2.92 ± 0.49.
The like results for QTGEWQNIAIMTEEPELSPAYLIS [GFOD1] were, in that order, 3.05 ± 0.17 and 3.25 ± 0.22.

The record behind these values is the supplement of paper PMC10567573.
